Measurements reported in article PMC5832032, “Structural Basis for pH-Dependent Oligomerization of Dihydropyrimidinase from Pseudomonas aeruginosa PAO1” (Bioinorganic Chemistry and Applications, 2018).
Values joined by “and” are separate entries in the source; they are usually repeats but may differ in a detail not shown here. Equal entries are not always repeated.

Molecular target: the molecule itself
Experiment: SEC; Superdex 200 prep grade, purified protein 5 mg/mL in Buffer C (20 mM MES, 100 mM NaCl, pH 5.9), 0.5 mL/min; masses estimated against standard proteins; dimers and tetramers coexist

B1: Pseudomonas aeruginosa PAO1 dihydropyrimidinase (enzyme)
chain: MSLLIRGATVVTHEESYRADVLCANGLIQAIGENLETPSGCDVLDGGGQYLMPGGIDPHTHMQLPFMGTVASEDFFSGTAAGLAGGTTSIIDFVIPNPRQSLLEAFHTWRGWAQKSAADYGFHVAITWWSDEVAREMGELVAQHGVNSFKHFMAYKNAIMAADDTLVASFERCLELGAVPTVHAENGELVFHLQQKLLAQGLTGPEAHPLSRPPQVEGEAASRAIRIAETLGTPLYLVHISSREALDEIAYARAKGQPVYGEVLAGHLLLDDSVYRHPDWATAAGYVMSPPFRPVEHQEALWRGLQSGNLHTTATDHCCFCAEQKAMGRDDFSKIPNGTAGIEDRMALLWDAGVNSGRLSMHEFVALTSTNTAKIFNLFPRKGAIRVGADADLVLWDPQGSRTLSAATHHQRVDFNIFEGRTVRGIPSHTISQGKLLWAAGDLRAEPGAGRYVERPAYPSVYEVLGRRAERQRPVAVER
modifications: carboxylated lysine in the active site (position not given)
notes: dihydropyrimidinase of Pseudomonas aeruginosa PAO1; two zinc ions per monomer in the active site; also called P. aeruginosa dihydropyrimidinase; pseudomonal dihydropyrimidinase
stoichiometry N: 2 and 4
